Assay results as given in the DeepSol protein solubility set.

experiment: soluble on expression in E. coli; label from the status in PepcDB or PDB records

Sequence	soluble on expression in E. coli
MGSDKIHHHHHHMQTGKAISIPSILKVGNGTLNKIGEYLKSEELTSVVIFMGNGLIDMFGDTIMKSLTDAGITVLEYSELDTVEIDDIITLAFDIPNKVKAVVSVGGGKVIDAGKYAAFLRNMPFISVPTSSSSDGFSSASASLLVHGKRTSVPAKLAHGIIVDTQVIRTAPEKFIYSGIGDMVSKITALYDWIFEEAHGAGVVNDFAVMVAKKAVNSFVRTPYESIKDELFLKELVDSLAMSGIANEIAGSSAPTSGSEHLISHALDKILEHPQLHGIQVGIATYIMSVVQNHRYVRVCTVLKRTGFFDYAATLGMRKQDFLDAIDMAPSMKPFRHTYLHEKEYRDAAKKLVLEDDILNKILV	not soluble
MGSDKIHHHHHHMQTTTALRLYGKRDLRLETFTLPAMQDDEILARVVTDSLCLSSWKEANQGADHKKVPDDVATRPIIIGHEFCGEILAVGKKWQHKFQPGQRYVIQANLQLPDRPDCPGYSFPWIGGEATHVVIPNEVMAQDCLLTWEGDTWFEGSLVEPLSCVIGAFNANYHLQEGSYNHVMGIRPQGHTLILGGTGPMGLLAIDYALHGPINPSLLVVTDTNKPKLSYARRHYPSEPQTLIHYLDGHEASRDTLLALSGGHGFDDIFVFVPNEQLITLASSLLAPDGCLNFFAGPQDKQFSAPINFYDVHYAFTHYVGTSGGNTDDMRAAVALMQAKKVQTAKVVTHILGLNAAGETTLDLPAVGGGKKLVYTGKAFPLTPLGEIADPELAAIVARHHGIWSQDAEAYLLAHAEDITHD	not soluble
MGSDKIHHHHHHMQVPSGAADLPEQMGTKAKFWFDDSRRLFKEGRPGTGENWAEVIAAELAALLGLPHATYSLAEYEGRRGVVTESFVPSGARLILGNELIGFAARETVSRHTRGQAHTIGRLSSLLNRPQVALPSGWVSPTSFFNAADVMSGYLLLDALIANQDRHEENWGLINSHGAIYLAPTFDHASSLGRNETDQRRIQKLDANHPDHGVLGYARRAKVPIYDGMGPLQSGEAFFAFARSCPDKGAYWLNRLHELDPSSFLALLNRIPVGWITDPARRFAAELLKVNRDRLLDEK	not soluble
MGSDKIHHHHHHMQVYPLIMNKLVMPAASRFTDLKIWDEYKVMLKSERLSLEQLRQMQLTKLQTIVRHAYENVPFYRQRFDSIGLHPEDIKSIEDIERIPPTTKDDIMANFPEGITAGGMDRNRWKYVASSGTTRKIMGIHDFRKSTLNWAAGIRAHRLAGNHRMGMKWMEIPPHMCTTICGINDGPKGEKLSTKKLVSLVKEGDFGGAGRHVYEGLYSMRHDLYKRVTLPSFGPEGTNIPESDIVSYLDSIRSYQPHLLEGLPLYLYTFAKYILDKGISAPRVGVIKPFGGSLTPYMKQIIATAFGCEVYDTYGCSELGFMAADCPKHEGVHLFMDLYHVEVRHGDRAAAPGELGKFYVTDLENRAMPWIRYEIGDVGRYFEDDHGCGRRGIRLEVEGRVQDTLVNSQGRFFTSDEVFDFFHRREEIDNFQLTEKSAGRYELLCVPVEGKEVDREGIARDFREFFDTEANVKAYAVKTIKAEDGGKFRFIKAKGHDRL	not soluble
MGSDKIHHHHHHMRAKAKLYPKEAARLIREKPGVREAVTGATLHFERNRLKAYAEVPIEAWRERAKAVKDHVLTHLDHYLELAERRLRENGVQVHWAETPEDAHRVLREVVARHGVKRAVKAKSMLTEELGVNPLLEALGVEVYETDLGEYLIQLLGEPPSHIVGPAIHLSLEEIQRLFHQRFGTPLDAPPEALAQVARRVLREAFLTAELGISGANFLVAETGTLALMENEGNIRLSTSLPRVHVAFVGIEKLLPRFADLALFLPLAARAATGQRLSTFVSLIQGPAREGEEGPLEVHVVLVDNGRTALLHDPEAWETLRCLRCGACLNACPVYRQTGGHPYGYVYSGPIGAVLDPGLLTLEEAYPLPYASTLCGACLEACPVKIPIPKLLLAWRHRAVEEGLTPSWEHGAMRAFRKVMESPALYRLFSKGLRGLPLPQDLLPLLKAWTEGRGPLKPSPKPFHELWKEVERGG	not soluble
MGSDKIHHHHHHMRALDIAATGMSAQQLRVDVISNNIANMSTTGYSPRRADFADLHYQQMVRAGAINASDGTVVPAGVQIGLGVRPAAVTVTWEQGTLGATGGQLDVAIEGRGYLEVTLPSGDNAYTRDGALQRTGDGLIVTNDGFEVNPGITIPDDAQEITINANGEVFASFRGEIQPQLLGQLNMVRFTNDNGLEAIGSNLFLETGASGAPLAGDPGEDGMGTFRQGYVEQSSVDAVREITDLIEAQRGYELNAKVLTAADQILGATTQVR	not soluble
MGSDKIHHHHHHMRAVRLHAKWDPRPEFKLGPKDIEGKLTWLGSKVWRYPEVRVEEVPEPRIEKPTEIIIKVKACGICGSDVHMAQTDEEGYILYPGLTGFPVTLGHEFSGVVVEAGPEAINRRTNKRFEIGEPVCAEEMLWCGHCRPCAEGFPNHCENLNELGFNVDGAFAEYVKVDAKYAWSLRELEGVYEGDRLFLAGSLVEPTSVAYNAVIVRGGGIRPGDNVVILGGGPIGLAAVAILKHAGASKVILSEPSEVRRNLAKELGADHVIDPTKENFVEAVLDYTNGLGAKLFLEATGVPQLVWPQIEEVIWRARGINATVAIVARADAKIPLTGEVFQVRRAQIVGSQGHSGHGTFPRVISLMASGMDMTKIISKTVSMEEIPEYIKRLQTDKSLVKVTMLNE	not soluble
MGSDKIHHHHHHMRCFIGIDLGSTTTKAVVMDENLQILGRGITNSRSNYDTAAAVSKQEALIDTRLTLFRRALGGVPEVAGKVDDILSDLERNFRHVQFLEQLEDLQQTCIANIKGPRFAGREKTVIEALEGTFSRLRDSSAKQYAPGVKRKSDFFRDLAGAEFMSHGEAVCKEAGLGFDLILNVYDKSIIEVENRPPSGDMEGKFVRALEKGTMTGSSILAPVQSALAIPLEETYVVGTGYGRVRLPFPKEHIRSEILCHGLGAHMMYPETRTVLDIGGQDTKGIQVDPVGIVENFQMNDRCAAGCGRYLGYIADEMNMGLHELGPLAMKSNKQVRINSTCTVFAGAELRDRLALGEKREDILAGLHRAIILRAMSILSRAGGVKDQFTFTGGVAKNEAAVRELRKLIKENYGDVTINIDPDSIYTGALGGATFAVRAVVN	not soluble
MGSDKIHHHHHHMREIMSIITLPRKIYQQRDIIDNIRETLQLKEPILLVSDRNIMKLYGQRIKNALDGSDYRVIEDVRPEPEVSDIENTYRSLSGFQPKTIIAFGGGSVIDFAKSIDVKISYPDRSLEEVNPFEPLNLKADLVAIPTTSGTGSDVSFGIVITDQGRKLALGNFDLVPYVSVLDSSLVPSDPSIIRPTGVDALVHSFEALTANTSSIFTDALAEKAIETIFGILIDPMKGEEDARENMHLAATMAGISFTNSGTALAHALGHSFGSTHHVVHGTCVGLFLPYVIEFNSSDENASEKYARIARRLGYKDAISALRDLYRRIGQPLTVAEIGIPKDAYMKSLDSMVEKALADSELAFNPVIAGDEDVRSIYIKAYGD	not soluble
MGSDKIHHHHHHMREQLDQVGSGGVTGATGLLGNNLVRELVARGYTVKGLVRSKAKGEQQFNNLPGVELVVGDMAEVDAFAASLQGCDTVFHTASFFRDNYKGGSHWKELEQINVSGTRRLLEQAYGAGIRRFIHTSSIAVLNGAPGTSIEENCLRADADADDYYRSKILADRVVLSFLESHPQMHACMVLPGWMWGPGDVGPTSSGQLVNDVVQGKLPGLIPGSFSIVDARDVALAHIAAARHGRRGERYLAAGRHMTMRELMPVLGRMAGVKTPARQIPLPFLYTLAAVQEIYARLTGRPILLSMATLRLLVREQDRTRFDHRKSEQELGLSFRALELTIADTVAWYRDHGWFEKGSRL	not soluble
MGSDKIHHHHHHMREVHVNDIKEAVKEAIIEANCVLPREVRVAFQEALKREESPIGREVLTQILENAEIAQYYYMPYCQDTGVDVIFVFLGQDVHVVGGSLEDAINQGVREATEEGYLRASMVWDPVFERKNTKDNTPAIIHYEVVPGDRVKIVVAPKGAGSENTSRLAMLKPADGWEGVKKFILETVKFAGPNACPPFTVGVGIGGNFEYCAYLAKKALLRPVGKRHENPLIAKVEEELLEEINKIGWGPMGFGGTVTAVDVKVEMYPCHIASLPVAVNIQCHANRHAERVV	not soluble
MGSDKIHHHHHHMRGSSNIPLDWDKLRIFHAAAEAGSFTHAADKLHLSQSAISRQVSALEQDVGVKLFHRHARGLILTEQGELLYRTAHDVLLKLETVKMQLTETTEKPSGKLRVTTTVGLGQGWLTDKVQEFLQLYPDMSIQLILDNEELDVNMRHADCAIRLRQPQQSDLIQRKLFTVHMHVYAAPSYINRYGEPQTIEDLDNHRIISFGEPAPNYLLDVNWLEVAGRSSDNRRIPHLQINSQTSIKRACLLGIGVACMPDYIVGRDPGLIQLPINAEVPSFDTYFCYPDEMKNAAKLKVFRDFIVSKARNWNF	not soluble
MGSDKIHHHHHHMRIIEASAVHAAVRQMILAANRVLGDDVYAALKSSMESETSASGREVLRQLLENADLAASGGLALCQDTGAAVFFVEMGEDVRLGGGSLQHVLNSAMAQAYEEGCLRKSMCHPLTRCNTGDNRPAIVHTELVEGDRLTIRYMAKGGGSENMSRCTMLTPAQGWQGIKEFVVRRMAEAGPNPCPPTIVGVGIGGTFDLAPALAKRALFRRLDDVHPDAEVAAMETELLDALNALGIGPMGLGGRTTCLAVKIALHPCHIASLPVAVNVQCHSARHREVIL	not soluble
MGSDKIHHHHHHMRILQIGKFYPIRGGIEKVMYDITMGLSQRQVYCDMLCASAEKQKPENLLLNDYARILCVSTWKKVAATMLSPAMIFRLRKINKEYDIIHIHHPDPMACLALFLSGYKGPVVLHWHSDILKQKMLLKLYSPLQNWLLRRAKVIVGTTPVYVQESPFLENIQRKVISVPIGIDEMKPVPGRVAQIKERYAGKKIIFSLGRLVEYKGYEYLIKASQKLNDDYIILIGGKGPLQEYLQSLIDELGVRKKVKLLGFIDDKDLPDYFGACDLFCLSSIWKTEAFGIVQIEAMSCGKPVIAMNIPESGVSWVNINRFSGINVKPEDADALAEAITAVLTDECLYEELARGARRRYETMFTKELMTELCLNLYSGVLDSSETDYPANKKE	not soluble
MGSDKIHHHHHHMRIRPDRNRGRSAGINPSGRFEPVSRHVFDDGWSSLEELPPFKTEVQVEKPRTIITRNESPDISFDRSINPYRGCEHGCVYCFARPTHAFMGLSPGLDFETKLFAKPDAARLLDKELSKEGYQPRTIAIGTNTDPYQPIEKQYRIMREILEVLEARGHPVGIVTKSALVTRDIDILSRMAERGLAKVALSVTTLDRMLARTMEPRASTPTKRLEAIRQLSDAGIPTSVMVAPIIPGLTDQEMERILDSAYAAGAREAGYVVLRLPLEVSPIFKDWLLRHYPDRYRHVMSLIRSMRDGKDYDSEWGKRMKGAGPYAWQIGRRFEITAKRLGLNIERRTLRTDQFVAAGKDQEQLMLL	not soluble
MGSDKIHHHHHHMRISANFDGGNIETISLANPDDIQLAIRPDAGGEFYQWFNFRFEATIGKTYTLNILNAGGASYLKGWEDYQAVASYDRQTWFRLPTEYKDGKLSISVELDCEAIQIAYFTPYSYERHLDLISAVQLHPLVSTEHLGLTLDGRDMTLVKVGDDDPSKKSIWITARQHPGETMAEWLVEGLLNQLLDNDCPTSKALLDKANFYIVPNMNPDGSVRGHLRTNAVGANLNREWQTPSLERSPEVYYVVNKMHETGVDLFYDVHGDEGLPYVFLAGCEGIPNYSDKLASLQQDFVAALSLASADFQTEFGYDKDEPGKANLTVACNWVANTFKCLSNTLEMPFKDNANLADPFQGWSPERSVYFGEASLIAMRAVIDKIGQ	not soluble
